# Key:
# [1] = molecular target: broadly neutralizing anti-E2 murine monoclonal antibody AP33 (IgG); assay: competition ELISA; conditions: peptide 10 µg/ml (highest concentration); binding to E2661 read; parent: est. 5; read off a plot
# [2] = molecular target: AP33 heavy chain mutant Y53 (human-mouse chimeric AP33, residue changed to alanine) (mouse | human); assay: ELISA
# [3] = molecular target: AP33 light chain mutant Y28 (human-mouse chimeric AP33, residue changed to alanine) (mouse | human); assay: ELISA
# [4] = molecular target: AP33 heavy chain mutant T97 (human-mouse chimeric AP33, residue changed to alanine) (mouse | human); assay: ELISA
# [5] = molecular target: AP33 light chain mutant N92 (human-mouse chimeric AP33, residue changed to alanine) (mouse | human); assay: ELISA
# [6] = molecular target: AP33 light chain mutant D94 (human-mouse chimeric AP33, residue changed to alanine) (mouse | human); assay: ELISA
# [7] = molecular target: AP33 light chain mutant N30 (human-mouse chimeric AP33, residue changed to alanine) (mouse | human); assay: ELISA
# [8] = molecular target: AP33 heavy chain mutant I95 (human-mouse chimeric AP33, residue changed to alanine) (mouse | human); assay: ELISA
# [9] = molecular target: AP33 light chain mutant V93 (human-mouse chimeric AP33, residue changed to alanine) (mouse | human); assay: ELISA
# MAb ALP98 = assay: ELISA; conditions: parent: est. 100; read off a plot
# [10] = molecular target: soluble HCV E2 that lacks the transmembrane domain (E2_(661)), monomeric (Hepatitis C virus genotype 1a strain …, UniProt P27958); assay: SPR; conditions: both partners purified
molecule,measurement,setting,value
E2 412-423 WT peptide W420R,other: E2 Binding (%) remaining after peptide competition,[1],86%
E2 (as tested on wild type and mutant AP33 in Table 1) (from UniProt P27958 384-746) (natural protein),Relative strength of binding (%) (% of binding to WT AP33),[2],100
same,Relative strength of binding (%) (% of binding to WT AP33),[3],112
same,Relative strength of binding (%) (% of binding to WT AP33),[4],101
same,Relative strength of binding (%) (% of binding to WT AP33),[5],60
same,Relative strength of binding (%) (% of binding to WT AP33),[6],74
same,Relative strength of binding (%) (% of binding to WT AP33),[7],89
same,Relative strength of binding (%) (% of binding to WT AP33),[8],10
same,Relative strength of binding (%) (% of binding to WT AP33),[9],79
E2 WT I414A,percent of parent,MAb ALP98,96%
E2 WT S424A,percent of parent,MAb ALP98,96%
"broadly neutralizing anti-E2 murine monoclonal antibody AP33 (IgG) (antibody, V domains shown) VH: EVQLQESGPSLVKPSQTLSLTCSVTGDSITSGYWNWIRKFPGNKLEYMGYISYSGSTYYNLSLRSRISITRDTSKNQYYLQLNSVTTEDTATYYCALITTTTYAMDYWGQGTSVTVSS VL: NIVLTQSPVSLAVSLGQRATISCRASESVDGYGNSFLHWFQQKPGQPPKLLIYLASNLNSGVPARFSGSGSRTDFTLTIDPVEADDAATYYCQQNNVDPWTFGGGTKLEIK",Kd,[10],3.4 nM
same,koff,[10],0.000542 s⁻¹
same,kon,[10],160000 M⁻¹ s⁻¹
